To fix the notation:
B1: Adaptin ear-binding coat-associated protein 1 (Mus musculus), Q9CR95 (parent)
chain: MAAELEYESVLCVKPDVSVYRIPPRASNRGYRASDWKLDQPDWTGRLRITSKGKIAYIKLEDKVSGELFAQAPVEQYPGIAVETVTDSSRYFVIRIQDGTGRSAFIGIGFTDRGDAFDFNVSLQDHFKWVKQETEISKESQEMDNRPKLDLGFKEGQTIKLSIGNITAKKGGASKPRASGTGGLSLLPPPPGGKVTIPPPSSSVAISNHVTPPPIPKSNHGGNDSDILLDLDSPAPVSTSAPAPVSTSNDLWGDFSTASSSVPNQAPQPSNWVQF
partner: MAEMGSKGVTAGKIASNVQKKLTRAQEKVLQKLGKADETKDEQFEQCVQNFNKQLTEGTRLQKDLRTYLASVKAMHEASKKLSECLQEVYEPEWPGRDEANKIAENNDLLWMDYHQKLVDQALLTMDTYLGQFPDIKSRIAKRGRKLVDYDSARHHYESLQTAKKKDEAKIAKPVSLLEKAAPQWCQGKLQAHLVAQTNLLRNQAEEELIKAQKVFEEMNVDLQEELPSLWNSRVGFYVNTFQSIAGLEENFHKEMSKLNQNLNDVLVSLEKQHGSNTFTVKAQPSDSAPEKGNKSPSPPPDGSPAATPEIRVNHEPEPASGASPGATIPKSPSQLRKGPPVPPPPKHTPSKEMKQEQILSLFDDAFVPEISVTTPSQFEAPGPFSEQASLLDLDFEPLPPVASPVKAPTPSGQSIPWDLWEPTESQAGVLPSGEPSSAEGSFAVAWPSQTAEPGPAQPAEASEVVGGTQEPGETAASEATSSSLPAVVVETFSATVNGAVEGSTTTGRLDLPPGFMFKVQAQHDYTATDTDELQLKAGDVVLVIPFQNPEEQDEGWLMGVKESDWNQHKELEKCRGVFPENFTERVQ
B2: Adaptin ear-binding coat-associated protein 2 (Mus musculus), Q9D1J1 (parent)
chain: MEESEYESVLCVKPEVHVYRIPPRATNRGYRASEWQLDQPSWSGRLRITAKGKVAYIKLEDRTSGELFAQAPVDQFPGTAVESVTDSSRYFVIRIEDGNGRRAFIGLGFGDRGDAFDFNVALQDHFKWVKQQCEFAKQAQNPDEGPKLDLGFKDGQTIKINIANMRKKEGAAGTPRARPTSAGGLSLLPPPPGGKSSTVIPPSGEQLSVGGSLVQPAVVSGSGGATELWPQSKPAAAATADIWGDFTKSTGSPSSQSQPGTGWVQF
partner: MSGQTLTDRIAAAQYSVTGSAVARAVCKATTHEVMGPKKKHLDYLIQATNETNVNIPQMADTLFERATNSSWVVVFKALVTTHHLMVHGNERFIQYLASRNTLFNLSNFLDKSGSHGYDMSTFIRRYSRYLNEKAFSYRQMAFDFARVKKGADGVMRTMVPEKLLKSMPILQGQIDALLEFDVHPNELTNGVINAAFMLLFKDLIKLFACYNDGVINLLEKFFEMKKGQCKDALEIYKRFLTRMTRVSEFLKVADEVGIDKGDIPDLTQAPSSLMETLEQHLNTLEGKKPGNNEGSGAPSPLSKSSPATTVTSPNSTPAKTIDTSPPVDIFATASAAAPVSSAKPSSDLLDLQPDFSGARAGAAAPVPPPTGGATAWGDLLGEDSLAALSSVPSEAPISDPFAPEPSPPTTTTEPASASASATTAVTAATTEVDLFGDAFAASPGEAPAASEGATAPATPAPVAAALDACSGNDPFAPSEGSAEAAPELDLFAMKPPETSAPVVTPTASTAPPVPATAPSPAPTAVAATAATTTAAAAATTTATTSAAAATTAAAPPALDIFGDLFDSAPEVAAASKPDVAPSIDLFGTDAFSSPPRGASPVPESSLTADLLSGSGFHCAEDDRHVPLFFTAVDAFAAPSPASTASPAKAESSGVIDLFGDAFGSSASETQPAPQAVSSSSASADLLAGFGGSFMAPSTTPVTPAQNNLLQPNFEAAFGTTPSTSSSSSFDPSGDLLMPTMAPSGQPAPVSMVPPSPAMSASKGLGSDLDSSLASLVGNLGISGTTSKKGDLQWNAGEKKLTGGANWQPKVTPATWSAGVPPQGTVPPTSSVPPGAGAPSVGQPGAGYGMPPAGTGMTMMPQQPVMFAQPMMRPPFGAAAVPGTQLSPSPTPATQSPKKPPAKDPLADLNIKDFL
B3: Adaptin ear-binding coat-associated protein 1 (Mus musculus), Q9CR95 (parent)
chain: B1 chain
B4: Adaptin ear-binding coat-associated protein 2 (Mus musculus), Q9D1J1 (parent)
chain: B2 chain
partner: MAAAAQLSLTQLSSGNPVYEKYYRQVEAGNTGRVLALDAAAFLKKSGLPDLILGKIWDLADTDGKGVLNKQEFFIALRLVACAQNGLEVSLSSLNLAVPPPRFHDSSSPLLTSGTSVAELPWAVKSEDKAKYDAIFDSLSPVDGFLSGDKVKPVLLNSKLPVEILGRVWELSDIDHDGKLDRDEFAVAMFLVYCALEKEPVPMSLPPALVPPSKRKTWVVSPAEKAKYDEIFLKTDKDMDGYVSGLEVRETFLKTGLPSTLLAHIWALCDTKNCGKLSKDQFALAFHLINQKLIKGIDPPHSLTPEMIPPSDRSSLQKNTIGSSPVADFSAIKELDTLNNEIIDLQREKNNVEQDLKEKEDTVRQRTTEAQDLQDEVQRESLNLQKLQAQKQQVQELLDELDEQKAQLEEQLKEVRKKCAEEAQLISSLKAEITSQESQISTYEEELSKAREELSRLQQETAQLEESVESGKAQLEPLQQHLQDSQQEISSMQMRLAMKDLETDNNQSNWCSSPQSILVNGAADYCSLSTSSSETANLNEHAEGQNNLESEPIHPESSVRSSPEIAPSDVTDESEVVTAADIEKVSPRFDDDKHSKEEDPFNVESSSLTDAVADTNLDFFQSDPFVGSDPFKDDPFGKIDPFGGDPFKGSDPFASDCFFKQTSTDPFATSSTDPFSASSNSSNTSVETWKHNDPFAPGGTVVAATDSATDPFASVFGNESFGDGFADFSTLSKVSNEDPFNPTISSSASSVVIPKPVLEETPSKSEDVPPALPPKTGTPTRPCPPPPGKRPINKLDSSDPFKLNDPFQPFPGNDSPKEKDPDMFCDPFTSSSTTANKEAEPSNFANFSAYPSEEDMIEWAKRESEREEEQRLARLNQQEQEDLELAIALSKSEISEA
B5: Adaptin ear-binding coat-associated protein 2 (Mus musculus), Q9D1J1 (parent)
chain: B2 chain

Variants of B1 are the subject of one test. Particulars: with bin1_rat Bin1, O08839.
Turning to R21A, the “effect of a mutation on the interaction” value is reported as “disrupting interaction”.

Regarding R102A, the “effect of a mutation on the interaction” value is reported as “disrupting interaction”.

The variants in a further test derive from B2. Particulars: with ap180_rat Snap91, Q05140.
Consider S41A, for which the “effect of a mutation on the interaction” value was “increasing interaction”.

With R20A, the “effect of a mutation on the interaction” value was “disrupting interaction”.

R101A: the “effect of a mutation on the interaction” value is “disrupting interaction”.

In another test the parent is B3. Particulars: with Synj1, Q62910-1.
Synj1, Q62910-1, sequence (Q62910 whole entry): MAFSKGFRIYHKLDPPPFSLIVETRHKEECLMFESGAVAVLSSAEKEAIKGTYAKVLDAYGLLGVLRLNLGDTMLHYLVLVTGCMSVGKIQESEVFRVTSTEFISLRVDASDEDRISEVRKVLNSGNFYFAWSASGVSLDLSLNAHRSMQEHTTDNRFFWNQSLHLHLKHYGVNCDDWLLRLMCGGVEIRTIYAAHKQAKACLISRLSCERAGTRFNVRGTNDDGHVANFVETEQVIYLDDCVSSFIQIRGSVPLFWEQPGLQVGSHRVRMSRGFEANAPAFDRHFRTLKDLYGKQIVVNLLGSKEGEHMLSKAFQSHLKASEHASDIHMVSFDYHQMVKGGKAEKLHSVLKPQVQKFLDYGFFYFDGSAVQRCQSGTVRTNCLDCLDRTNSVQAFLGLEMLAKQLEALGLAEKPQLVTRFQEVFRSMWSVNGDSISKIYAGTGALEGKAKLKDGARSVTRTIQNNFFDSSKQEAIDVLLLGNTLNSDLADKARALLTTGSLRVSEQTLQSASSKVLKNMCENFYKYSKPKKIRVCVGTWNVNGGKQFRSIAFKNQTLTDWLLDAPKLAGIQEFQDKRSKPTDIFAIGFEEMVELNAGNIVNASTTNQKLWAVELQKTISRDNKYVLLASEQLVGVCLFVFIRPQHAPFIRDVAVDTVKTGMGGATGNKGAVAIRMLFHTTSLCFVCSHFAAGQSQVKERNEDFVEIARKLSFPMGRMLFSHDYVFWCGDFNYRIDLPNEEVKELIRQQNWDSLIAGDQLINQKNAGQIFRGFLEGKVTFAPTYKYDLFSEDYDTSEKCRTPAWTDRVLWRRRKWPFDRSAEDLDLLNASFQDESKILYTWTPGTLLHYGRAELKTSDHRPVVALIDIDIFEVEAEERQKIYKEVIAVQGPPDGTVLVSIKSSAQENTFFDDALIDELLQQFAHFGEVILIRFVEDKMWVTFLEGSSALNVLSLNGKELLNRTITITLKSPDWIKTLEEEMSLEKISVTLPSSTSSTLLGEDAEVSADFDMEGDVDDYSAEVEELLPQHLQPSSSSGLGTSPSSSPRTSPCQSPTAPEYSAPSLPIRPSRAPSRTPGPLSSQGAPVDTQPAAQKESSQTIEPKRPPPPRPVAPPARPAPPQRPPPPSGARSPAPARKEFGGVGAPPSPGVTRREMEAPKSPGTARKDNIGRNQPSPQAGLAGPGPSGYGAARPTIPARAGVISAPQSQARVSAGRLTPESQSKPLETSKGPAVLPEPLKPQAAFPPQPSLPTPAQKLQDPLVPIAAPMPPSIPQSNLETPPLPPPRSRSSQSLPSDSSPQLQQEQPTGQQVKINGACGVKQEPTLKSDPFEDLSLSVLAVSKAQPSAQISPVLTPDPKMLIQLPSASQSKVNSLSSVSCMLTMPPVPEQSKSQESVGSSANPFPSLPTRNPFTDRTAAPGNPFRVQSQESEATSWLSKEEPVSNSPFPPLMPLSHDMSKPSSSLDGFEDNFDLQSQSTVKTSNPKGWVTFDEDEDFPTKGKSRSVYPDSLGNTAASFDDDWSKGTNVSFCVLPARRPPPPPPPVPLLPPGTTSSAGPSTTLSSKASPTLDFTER
As for R102A, the “effect of a mutation on the interaction” value is “disrupting interaction”.

For the variant R21A, the “effect of a mutation on the interaction” value is recorded as “decreasing interaction”.

The next test covers variants of B4. Particulars: with Eps15, A7BFV9.
As to R20A, the “effect of a mutation on the interaction” value was “disrupting interaction”.

Regarding R101A, the “effect of a mutation on the interaction” value is “disrupting interaction”.

In a further test the parent is B5. Particulars: with Synj1, Q62910-1.
Regarding R20A, the “effect of a mutation on the interaction” value is “decreasing interaction”.

R101A: the “effect of a mutation on the interaction” value is given as “disrupting interaction”.

Variants of B5 are the subject of a further test. As to conditions: with epn1_rat Epn1, O88339.
epn1_rat Epn1, O88339, sequence (O88339 whole entry): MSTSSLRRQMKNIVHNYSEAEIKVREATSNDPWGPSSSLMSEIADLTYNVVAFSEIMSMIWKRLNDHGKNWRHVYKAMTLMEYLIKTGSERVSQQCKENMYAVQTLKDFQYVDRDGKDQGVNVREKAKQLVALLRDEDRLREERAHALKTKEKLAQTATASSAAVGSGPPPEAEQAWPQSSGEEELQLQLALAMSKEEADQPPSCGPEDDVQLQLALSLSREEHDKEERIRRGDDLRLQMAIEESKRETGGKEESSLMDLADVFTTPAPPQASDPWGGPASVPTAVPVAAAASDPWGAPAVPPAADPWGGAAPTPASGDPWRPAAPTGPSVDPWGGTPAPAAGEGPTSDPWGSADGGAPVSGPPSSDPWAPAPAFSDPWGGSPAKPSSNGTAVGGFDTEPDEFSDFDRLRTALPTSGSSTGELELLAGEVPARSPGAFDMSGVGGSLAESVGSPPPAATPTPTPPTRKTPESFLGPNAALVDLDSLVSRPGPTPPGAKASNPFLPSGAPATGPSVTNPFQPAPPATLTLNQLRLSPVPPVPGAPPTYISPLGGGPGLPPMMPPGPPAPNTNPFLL
Turning to R101A, the “effect of a mutation on the interaction” value was “disrupting interaction”.

These data come from IntAct's records for PubMed 17762867.
